Experimental data published in the supplement of paper PMC9876800.

Tested on: peptide library, one residue held at a place counted from the S/T acceptor
Test: relative phosphorylation of the sub-library (ratio to the mean residue at this position); higher = residue favoured
Outline: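 Relative sub-library phosphorylation, a ratio to the mean residue at that position, was obtained by phosphorimaging and densitometry of spots on streptavidin membranes. Before capture, purified recombinant kinases were incubated for 90 min under kinase-specific conditions with 50 μM biotinylated degenerate peptide sub-libraries and 50 μM ATP spiked with γ-32P-ATP. Each sub-library fixed one residue at one position around a central Ser/Thr.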

Sequence of MAP3K1, construct: aa1174-end, human (Q13233 1174-1512, looked up): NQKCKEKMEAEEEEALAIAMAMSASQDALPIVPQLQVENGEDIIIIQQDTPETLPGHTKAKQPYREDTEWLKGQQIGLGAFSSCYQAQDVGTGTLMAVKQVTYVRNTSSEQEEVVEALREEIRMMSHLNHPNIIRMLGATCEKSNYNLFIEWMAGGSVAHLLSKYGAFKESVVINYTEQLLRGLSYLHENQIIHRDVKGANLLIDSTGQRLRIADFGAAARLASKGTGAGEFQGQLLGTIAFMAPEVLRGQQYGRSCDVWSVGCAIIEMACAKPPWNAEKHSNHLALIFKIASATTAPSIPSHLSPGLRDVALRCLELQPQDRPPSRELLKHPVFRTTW
Sequence of GSK3B, construct: Full length, human (P49841 whole entry, looked up): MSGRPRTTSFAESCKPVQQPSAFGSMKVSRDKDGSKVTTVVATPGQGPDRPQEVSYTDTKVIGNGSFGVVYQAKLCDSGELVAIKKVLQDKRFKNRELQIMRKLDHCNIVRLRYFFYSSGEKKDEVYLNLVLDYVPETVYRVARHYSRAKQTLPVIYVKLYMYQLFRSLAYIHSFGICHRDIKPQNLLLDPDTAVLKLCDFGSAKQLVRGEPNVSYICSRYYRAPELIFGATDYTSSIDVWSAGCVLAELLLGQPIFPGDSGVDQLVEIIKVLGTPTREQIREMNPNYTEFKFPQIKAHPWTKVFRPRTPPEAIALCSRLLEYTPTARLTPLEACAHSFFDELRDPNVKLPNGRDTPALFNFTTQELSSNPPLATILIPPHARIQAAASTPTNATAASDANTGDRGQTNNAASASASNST
Sequence of MAPKAPK3, construct: Full length, human (Q16644 whole entry, looked up): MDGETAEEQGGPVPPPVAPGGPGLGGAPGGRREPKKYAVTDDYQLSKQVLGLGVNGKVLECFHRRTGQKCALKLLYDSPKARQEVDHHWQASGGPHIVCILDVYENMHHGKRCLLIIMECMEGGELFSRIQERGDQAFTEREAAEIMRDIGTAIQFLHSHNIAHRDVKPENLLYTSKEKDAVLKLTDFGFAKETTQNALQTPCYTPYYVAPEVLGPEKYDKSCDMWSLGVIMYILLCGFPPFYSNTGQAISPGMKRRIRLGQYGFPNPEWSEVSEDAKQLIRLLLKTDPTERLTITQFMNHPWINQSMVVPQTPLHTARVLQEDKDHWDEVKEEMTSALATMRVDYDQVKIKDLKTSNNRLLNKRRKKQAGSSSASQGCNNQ

GSK3B, construct: Full length, human (from UniProt P49841)
relative phosphorylation
Conditions | at +1 | at +2 | at +3 | at +4 | at -1 | at -2 | at -3 | at -4 | at -5
A fixed | 0.927 | 1.01 | 0.893 | 0.871 | 1.05 | 1.09 | 1.63 | 1.02 | 1.15
D fixed | 0.826 | 0.857 | 0.911 | 0.938 | 0.885 | 0.92 | 0.898 | 0.969 | 0.83
E fixed | 0.818 | 0.917 | 1.23 | 2.42 | 0.855 | 0.898 | 0.865 | 0.851 | 0.83
F fixed | 0.942 | 1.05 | 1.06 | 0.871 | 0.863 | 0.855 | 0.812 | 0.918 | 1.05
G fixed | 0.928 | 0.92 | 0.966 | 0.843 | 1.17 | 1.1 | 1.47 | 1.18 | 1.21
H fixed | 0.985 | 1.16 | 1.1 | 0.988 | 1.02 | 0.885 | 0.883 | 0.989 | 1.02
I fixed | 1.02 | 0.984 | 0.929 | 0.795 | 0.889 | 1.01 | 0.871 | 0.913 | 1
K fixed | 1.02 | 1.02 | 1.01 | 0.983 | 1.1 | 1.12 | 0.935 | 1.11 | 0.979
L fixed | 0.966 | 0.994 | 0.923 | 0.849 | 0.916 | 0.882 | 0.785 | 0.966 | 1.03
M fixed | 0.975 | 0.99 | 1.06 | 0.911 | 1.08 | 0.882 | 0.891 | 0.943 | 0.968
N fixed | 0.963 | 1.12 | 0.983 | 0.992 | 1.04 | 0.935 | 0.899 | 1.02 | 0.855
P fixed | 1.77 | 0.904 | 0.972 | 0.942 | 1.18 | 1.23 | 1.13 | 1.08 | 1.1
Q fixed | 1 | 1.09 | 0.986 | 0.92 | 1.09 | 0.931 | 0.889 | 0.942 | 0.895
R fixed | 1.01 | 1.05 | 1.05 | 0.848 | 1.06 | 1.48 | 1.36 | 1.06 | 0.973
V fixed | 1.02 | 0.908 | 0.887 | 0.8 | 0.916 | 0.977 | 0.904 | 0.982 | 1.04
W fixed | 0.977 | 1.01 | 0.997 | 1.03 | 0.962 | 0.957 | 0.913 | 1.05 | 1.08
Y fixed | 0.854 | 1.01 | 1.04 | 1 | 0.931 | 0.846 | 0.866 | 1.02 | 0.997
pThr fixed | 1.01 | 1 | 3.53 | 66.5 | 0.946 | 1.02 | 1.15 | 1.16 | 0.927
pTyr fixed | 1.14 | 1.04 | 2.26 | 2.62 | 1.66 | 1.13 | 1 | 1.15 | 0.929

MAPKAPK3, construct: Full length, human (from UniProt Q16644)
relative phosphorylation
Conditions | at +1 | at +2 | at +3 | at +4 | at -1 | at -2 | at -3 | at -4 | at -5
A fixed | 0.674 | 1.05 | 1.17 | 1.02 | 0.861 | 1.42 | 0.885 | 1.11 | 0.659
D fixed | 0.406 | 1.06 | 1.47 | 1.21 | 0.649 | 0.266 | 0.193 | 0.495 | 0.203
E fixed | 0.637 | 0.868 | 1.52 | 1.02 | 0.573 | 0.386 | 0.222 | 0.764 | 0.187
F fixed | 1.04 | 0.749 | 0.722 | 0.727 | 1.05 | 0.806 | 0.438 | 0.896 | 1.97
G fixed | 0.54 | 0.872 | 1.5 | 1.26 | 0.579 | 0.968 | 0.614 | 0.88 | 0.453
H fixed | 1.26 | 1.31 | 1.05 | 1.01 | 1.23 | 0.903 | 1.34 | 1.12 | 0.689
I fixed | 1.21 | 0.813 | 0.518 | 0.711 | 0.838 | 0.462 | 0.211 | 0.795 | 1.31
K fixed | 1.07 | 0.94 | 0.807 | 1.14 | 1.3 | 0.927 | 2.05 | 1.79 | 0.646
L fixed | 1.05 | 0.794 | 0.645 | 0.823 | 1.24 | 1.04 | 0.314 | 1.12 | 1.71
M fixed | 1.31 | 0.826 | 0.675 | 0.84 | 1.21 | 1.5 | 0.487 | 1.26 | 1.2
N fixed | 1.08 | 1.26 | 1.13 | 1.16 | 1.13 | 0.857 | 0.682 | 0.76 | 0.361
P fixed | 0.229 | 1.27 | 1.82 | 1.54 | 1.22 | 0.638 | 0.883 | 0.627 | 1.15
Q fixed | 1.21 | 1.13 | 1.01 | 1.15 | 0.973 | 2.92 | 0.919 | 1.13 | 0.688
R fixed | 1.7 | 1.26 | 0.851 | 1.04 | 1.23 | 1.6 | 6.2 | 1.64 | 1.41
V fixed | 1.45 | 0.974 | 0.707 | 0.758 | 0.99 | 0.724 | 0.252 | 0.872 | 1.13
W fixed | 0.878 | 0.795 | 0.66 | 0.919 | 0.716 | 0.786 | 0.796 | 0.804 | 2.1
Y fixed | 1.24 | 1.02 | 0.745 | 0.67 | 1.21 | 0.788 | 0.521 | 0.931 | 1.15
pThr fixed | 0.99 | 0.759 | 0.687 | 1.1 | 0.449 | 0.345 | 0.244 | 0.464 | 0.333
pTyr fixed | 1.79 | 0.934 | 1.05 | 0.812 | 0.732 | 0.334 | 0.233 | 0.572 | 0.563

MAP3K1, construct: aa1174-end, human (from UniProt Q13233)
relative phosphorylation
Conditions | at +1 | at +2 | at +3 | at +4 | at -1 | at -2 | at -3 | at -4 | at -5
A fixed | 0.537 | 1.1 | 0.749 | 0.741 | 0.7 | 1.08 | 1.07 | 1.01 | 1.04
D fixed | 0.324 | 0.73 | 0.46 | 0.814 | 1.35 | 1.11 | 1.04 | 1.21 | 1.21
E fixed | 0.309 | 0.439 | 0.395 | 0.711 | 0.98 | 0.858 | 1.14 | 1.08 | 1.23
F fixed | 1.12 | 0.619 | 1.17 | 0.878 | 0.741 | 1.01 | 0.862 | 1.06 | 0.837
G fixed | 0.785 | 0.9 | 0.977 | 1.14 | 1.22 | 1.31 | 1.44 | 1.33 | 1.67
H fixed | 0.853 | 1.27 | 1.03 | 1.23 | 1.89 | 1.33 | 1.19 | 1.17 | 1.19
I fixed | 2.35 | 0.826 | 1.35 | 1.13 | 0.522 | 0.69 | 0.849 | 0.721 | 0.812
K fixed | 0.593 | 1.57 | 0.996 | 1.04 | 0.791 | 0.644 | 0.659 | 0.899 | 0.897
L fixed | 1.31 | 0.49 | 1.35 | 0.914 | 0.711 | 1.03 | 0.772 | 0.715 | 0.565
M fixed | 1.88 | 1.03 | 1.46 | 1.1 | 1.23 | 1.29 | 1.16 | 0.793 | 0.832
N fixed | 0.688 | 1.38 | 0.727 | 1.02 | 1.57 | 1.26 | 0.989 | 0.996 | 1.09
P fixed | 0.343 | 0.583 | 0.773 | 0.923 | 0.893 | 0.839 | 1.13 | 0.952 | 1.07
Q fixed | 0.963 | 0.825 | 0.725 | 0.823 | 1.09 | 1.03 | 0.78 | 0.838 | 0.761
R fixed | 0.837 | 2.5 | 1.24 | 1.6 | 1.38 | 0.832 | 0.857 | 0.954 | 1.17
V fixed | 1.77 | 0.777 | 0.812 | 0.66 | 0.479 | 0.581 | 0.639 | 0.735 | 0.65
W fixed | 1.19 | 0.798 | 1.41 | 1.19 | 0.599 | 0.943 | 1.27 | 1.54 | 0.897
Y fixed | 1.15 | 1.17 | 1.36 | 1.08 | 0.855 | 1.16 | 1.15 | 0.982 | 1.09
pThr fixed | 0.504 | 0.403 | 0.516 | 0.644 | 0.679 | 0.909 | 1.05 | 0.952 | 1.05
pTyr fixed | 0.495 | 0.368 | 0.623 | 0.696 | 0.796 | 0.796 | 1.22 | 0.824 | 1.36
